# Earlier results in PMC9696605 (Viruses, 2022).
# B1: phospho-MBP: phosphorylated myelin basic protein (protein, UniProt P02687 1-169, looked up)
# Myelin basic protein: AAQKRPSQRSKYLASASTMDHARHGFLPRHRDTGILDSLGRFFGSDRGAPKRGSGKDGHHAARTTHYGSLPQKAQGHRPQDENPVVHFFKNIVTPRTPPPSQGKGRGLSLSRFSWGAEGQKPGFGYGGRASDYKSAHKGLKGHDAQGTLSKIFKLGGRDSRSGSPMARR
# modifications: phosphorylated
# notes: phosphorylated myelin basic protein
# Target: Fyn-SH3 (Homo sapiens, UniProt P06241)
# Conditions: phosphorylated MBP
# Sequence of Fyn-SH3 (P06241 with tags, fused parts or gaps): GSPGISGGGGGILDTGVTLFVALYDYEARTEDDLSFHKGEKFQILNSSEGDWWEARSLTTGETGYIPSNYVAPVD
molecule,measurement,value
B1,Effect of MBP phosphorylation on interaction with Fyn-SH3,phosphorylation weakens the interaction
